This series concerns the molecule itself. The experiment in a line: AFM volume analysis.

B1: 6His–Ver (natural protein, Drosophila, UniProt Q9VTZ2 1-214, looked up)
chain: MDFNQSFEDIESQLDNFVIRKNQQSEKSTGKCGPEVHDNVPLTISQIERATQDPENENVFITDDVHPIHFCTCIIYAFVTGNGTHNESFMKFMIDDGTGSLEASITKKPFNGRVISSLYSEASSLASSEAYKSIAVSMMRLLQVSMEYIDPTRISRGHSLFLRGRPNRFRGKMGLDAFQFFIDSGRSRNMEIGFVDYLTDWQRRHKTMQNTTNK
With B1, the “stoichiometry N” value came out at 2.

One may read the stoichiometry N as the number of molecules, sites or subunits per partner or assembly.

The values are drawn from publication PMC5389638 (Nucleic Acids Research, 2016).
